Data from US9909188B2, “Methods and compositions involving lincRNA and leukemia” (THE REGENTS OF THE UNIVERSITY OF CALIFORNIA, priority 2013, dated 2018).

Legend:
[1] = system: glucocorticoid response genes Fos, Jun and Bim; test: Expression of glucocorticoid response genes Fos, Jun and Bim in 70Z/3 cells (RT-qPCR, Western blot); type: cell-based, mouse
Protocol: (§1) RNA collected from samples was reverse transcribed using qScript reagent (Quanta Biosciences). Real Time quantitative PCR was performed with the StepOnePlus Real-Time PCR System (Applied Biosystems) using PerfeCTa SYBR Green FastMix reagent (Quanta Biosciences).
(§2) RACE was performed and two products were identified at this locus (FIG. 16E). We generated miRNA-formatted siRNAs (Rao, et al., 2010) against the mapped murine transcript and confirmed decreased expression in the murine pre-B cell line 70Z/3 (FIG. 14B). […] Similar to what we observed in human cell lines, Balir-2 knockdown led to an upregulation of Jun and Fos in all three of the cell lines with upregulation of Bim in two out of three cell lines (FIG. 14D-F). We further confirmed the upregulation of these proteins by western blot analysis (FIG. 14G). […] We also examined the effects of BALIR-2 expression in a second human B-ALL cell line, Reh (FIG. 18K-R), utilizing a novel method to target the transcript. Based on the method of Ulitsky et al, we generated a siRNA-like sequence within our miRNA formatted vector, targeting the splice junction of the BALIR-2 transcript (Ulitsky, et al., 2011).

BALIR-2 [2] = test: Effect of prednisolone on BALIR-2 expression in human B-ALL cell lines (RT-qPCR); type: cell-based
Protocol: (§3) To measure proliferation, cells were cultured for 3-5 days before plating. Reagents were added according to the manufacturer's instructions (Promega CellTiter 96 AQueous Non-Radioactive Cell Proliferation Assay kit) and cells were incubated at 37°, 5% CO2 for 4 hours before absorbance was measured at 490 nm. To measure apoptosis, cells were plated and treated with 100 ng/mL doxorubicin or 250 μg/mL prednisolone in DMSO and incubated at 37° C. and 5% CO2. An untreated group and DMSO-treated group were included as controls. Cells were harvested after 24 hours and lysed with buffer supplied by Biovision. Protein concentrations were normalized after measurement by Bradford assay. Reagents were added according to the manufacturer's instructions (Biovision Caspase-3 Colorimetric Assay kit) and absorbance was measured at 405 nm. To observe the effects of prednisolone on lincRNA expression, untransduced cell lines were plated and treated with either 250 μg/mL prednisolone in DMSO or DMSO alone as a control. Cells were incubated at 37° C. and 5% CO2 for 24 hrs. Cells were collected and RNA was extracted using Trizol reagent (Invitrogen).
as §1

Balir-2 [3] = test: Balir-2 expression in 70Z/3 mouse cell line (RT-qPCR, normalized to L32); type: cell-based; conditions: 70Z/3 cells, 6 hrs
Protocol: as §1, §2

[4] = system: glucocorticoid receptor signaling pathway; test: Expression of glucocorticoid response genes in RS4;11 cells (microarray, RT-qPCR); type: cell-based, human
Protocol: as §1
Several of these clusters consist of genes involved in the glucocorticoid receptor signaling pathway, confirmed by functional annotation results (2-4 fold increases in FOS, HSPA6, SGK1, IL8, JUN, SERPINE1, CDKN1A and ICAM1 in siRNA group, both with and without prednisone treatment; FIGS. 13B and 13C). We confirmed knockdown of BALIR-2 and upregulation of FOS, JUN, SGK1 and SERPINE1 (FIG. 13D-F and FIG. 18E-F) by RT-qPCR. […] We also observed upregulation of the pro-apoptotic protein BIM in both knockdown and prednisolone-treated cells, which is a downstream target of JUN and an important mediator of glucocorticoid-induced apoptosis of lymphocytic cells (Heidari, et al, 2012) (FIGS. 13G and 13K).

70Z/3 cells = test: Apoptosis in 70Z/3 cells (caspase-3 activity); type: cell-based, mouse
RS411 cell line [5] = test: Apoptosis, caspase-3 activity, RS411; type: cell-based, human; conditions: for apoptosis measured by caspase-3 activity: RS411 stably transduced
Protocol: as §3, with “To measure apoptosis, cells were plated and treated with 100 ng/mL doxorubicin or 250 μg/mL prednisolone in DMSO and incubated at 37° C. and 5% CO2.” left out

RS411 cell line [6] = test: Cell proliferation, MTS assay, RS411; type: cell-based, human; conditions: RS411 stably transduced with siRNA
Protocol: as §3

BALIR-2 [7] = test: siRNA-mediated knockdown of BALIR-2 in human B-ALL cell lines (RT-qPCR, normalized to Actin); type: cell-based
Protocol: We designed two complementary “linker” strands containing restriction sites for BamHI (5′ intact), XhoI, XbaI, NheI, ApaI and BamHI (3′ mutated) as follows: 5′-[…]-3′ (forward) (SEQ ID NO. 11), 5′-[…]-3′ (reverse) (SEQ ID NO. 12). The oligonucleotides were ordered through Invitrogen and modified with 5′-phosphate groups. The complementary strands were annealed by heating to 100° C. and slowly cooling in a water bath. The pHAGE2-CMV-ZsGreen-W vector (previously described in (O'Connell, 2010)) was digested with BamHI (Fermentas) and the linker was ligated in using T4 DNA ligase (Fermentas). Colonies were sequenced (Laragen) to determine the correct orientation and verify the sequence of the insert and mutation of the 3′ BamHI site. miRNA-formatted siRNAs were cloned into BamHI and ApaI or XhoI in the P2CZL vector, using the strategy that we have previously described to generate knockdown vectors against protein coding genes (O'Connell, 2009; Rao, 2010).
All lentiviruses were produced by transfecting 293T adherent cells with knock-down vectors as listed in Table 1, using BioT transfection agent (Bioland Scientific). 2.5×10^5 293T cells were co-transfected in trans using an advanced generation lentiviral system in 6 well plates for 48 hours as described previously (O'Connell, 2010). At 48 hours, the viral supernatant was collected, filtered and used for spin infection of B-ALL cell lines. 5.0×10^5 cells were spin-infected at 30° C. for 90 minutes in the presence polybrene (4 μg/mL). Transduced cells were sorted for high ZsGreen expression as described above.
as §1

[8] = RS411 cell line, stably transduced

Molecule: C[C@]12C=CC(=O)C=C1CC[C@@H]1[C@@H]2[C@@H](O)C[C@@]2(C)[C@H]1CC[C@]2(O)C(=O)CO [prednisolone]
- expression of Jun, Fos and Bim after prednisolone treatment [1]: upregulation
- BALIR-2 expression after prednisolone treatment (BALIR-2 [2]; RS4;11 cells): repressed
- decrease in expression of BALIR-2 following treatment (BALIR-2 [2]; RS411 and NALM6 cell lines treated with prednisolone): 30-50%
- Balir-2 expression upon prednisolone treatment (Balir-2 [3]): decreased
- expression of FOS and JUN after prednisolone treatment ([4]; RS4;11 cells): increased expression
- expression of pro-apoptotic protein BIM ([4]; RS4;11 cells): upregulation
- apoptosis after prednisolone treatment (70Z/3 cells): increased apoptosis
- apoptosis after prednisolone treatment (RS411 cell line [5]; RS4;11 cells): induction of apoptosis

B1: siRNA1: miR-155 formatted siRNA oligo against BALIR-2; SEQ ID NO:29, targeting sequence SEQ ID NO:39 (nucleic acid)
chain: GAAGGCTGTATGCTGAGATTAGGTTGGCATGATTCTGTTTTGGCCACTGACTGACAGAATCATCAACCTAATCTCAGGACACAAGGCCTG
modifications: expressed or natural sequence
- cell proliferation (MTS assay) (RS411 cell line [6]): reduced
- knockdown of BALIR-2 (BALIR-2 [7]; NALM6 cell line): do not knock down

B2: human-miR155-formatted siRNA1: human-miR155-formatted siRNA1 against BALIR-2; SEQ ID NO:33/43 (nucleic acid)
chain 1: GTAGGCTGTATGCTGAGATTAGGTTGGCATGATTCTGTTTTGGCCACTGACTGACAGAATCATCAACCTAATCTTGTATGATGCCTG
chain 2: AGATTAGGTTGGCATGATTCT
modifications: expressed or natural sequence
- knockdown of BALIR-2 (BALIR-2 [7]; [8]): do not knock down

B3: siRNA2: miR-155 formatted siRNA oligo against BALIR-2; SEQ ID NO:30, targeting sequence SEQ ID NO:40 (nucleic acid)
chain: GAAGGCTGTATGCTGTTTACTGAAATCTCCTAGGTGGTTTTGGCCACTGACTGACCACCTAGGATTTCAGTAAACAGGACACAAGGCCTG
modifications: expressed or natural sequence
- increases in FOS, HSPA6, SGK1, IL8, JUN, SERPINE1, CDKN1A and ICAM1 in siRNA group ([4]; RS4;11, microarray, both with and without prednisone treatment): 2-4 fold
- expression of FOS, JUN, SGK1 and SERPINE1 by RT-qPCR after knockdown ([4]; RS4;11 cells): upregulation
- expression of pro-apoptotic protein BIM ([4]; RS4;11 cells): upregulation
- knockdown of BALIR-2 (BALIR-2 [7]; NALM6 cell line): do not knock down
- knockdown of BALIR-2 (BALIR-2 [7]; [8]): greatest degree of knockdown
- apoptosis measured by caspase-3 activity (RS411 cell line [5]; DMSO): Increased apoptosis
- apoptosis measured by caspase-3 activity (RS411 cell line [5]; no treatment): Increased apoptosis

B4: siRNA3: miR-155 formatted siRNA oligo against BALIR-2; SEQ ID NO:31/41 (nucleic acid)
chain 1: GTAGGCTGTATGCTGTAAGGTAAGTGGCAGGCATTTGTTTTGGCCACTGACTGACAAATGCCTCACTTACCTTATGTATGATGCCTG
chain 2: TAAGGTAAGTGGCAGGCATTT
modifications: expressed or natural sequence
- knockdown of BALIR-2 (BALIR-2 [7]; [8]): do not knock down

B5: human-miR155-formatted siRNA2: human-miR155-formatted siRNA2 against BALIR-2; SEQ ID NO:34/44, printed as siRNA1-human155f (nucleic acid)
chain 1: GTAGGCTGTATGCTGTTTACTGAAATCTCCTAGGTGGTTTTGGCCACTGACTGACCACCTAGGATTTCAGTAAATGTATGATGCCTG
chain 2: TTTACTGAAATCTCCTAGGTG
modifications: expressed or natural sequence
- knockdown of BALIR-2 (BALIR-2 [7]; [8]): do not knock down

B6: siRNA4: miR-155 formatted siRNA oligo against BALIR-2; SEQ ID NO:32/42 (nucleic acid)
chain 1: GTAGGCTGTATGCTGTTTCACGGTGTGGCAGCTTTCGTTTTGCCTCCAACTGAGAAAGCTGACACCGTGAAATGTATGATGCCTG
chain 2: TTTCACGGTGTGGCAGCTTTC
modifications: expressed or natural sequence
- knockdown of BALIR-2 (BALIR-2 [7]; [8]): do not knock down
